The data set deals with the molecule itself. Description: cryo-EM structure.

B1: Redβ177-His6 (C-terminally truncated Redβ annealase of bacteriophage λ, residues 1-177) (domain or fragment, bacteriophage lambda (phage λ), UniProt P03698 1-177, looked up)
chain: MSTALATLAGKLAERVGMDSVDPQELITTLRQTAFKGDASDAQFIALLIVANQYGLNPWTKEIYAFPDKQNGIVPVVGVDGWSRIINENQQFDGMDFEQDNESCTCRIYRKDRNHPICVTEWMDECRREPFKTREGREITGPWQSHPKRMLRHKAMIQCARLAFGFAGIYDKDEAER
As for B1, the binding result is reported as “binds”.

Source of the values: paper doi:10.1101/2022.04.09.487726 (bioRxiv, 2022).
